Key:
Format in all cases: cell-based
CD40 = biological target: T1, CD40 (Homo sapiens, UniProt P25942); assay: Recruitment assay in intact cells: CD40 and TRAF co-expressed in 293T cells, anti-CD40 capture ELISA of lysate; conditions: for interaction with CD40 when signalosome assembly occurred in an intact cell: co-expressed in 293T cells, versus cell lysate
T1 construct: expressed in transfected cells; host or cells: HEK 293T
Experimental: In order monitor TNF receptor associated factor 1 (TRAF1) recruitment to the CD40 receptor, in intact cells, CD40 and TRAF1 encoding plasmids generated as described in example 7) were used to co-transfect the human embryonic kidney 293T cells (HEK293 ATTC CRL-1573 over expressing the T antigen) (DuBridge et al 1987). 2×10^5 cells were seeded at into 3.5 cm dishes grown 16 hours at 37° C. and transfected with 1 μg CD40 expression plasmid and 2 μg of an expression plasmid encoding TRAF by the calcium phosphate method (Kingston et al. 1993). The two expression plasmids, TRAF1 plasmid and CD40 plasmid were used for transfection at a ratio greater than 2:1 respectively in order to saturate all the CD40 molecules produced. Twenty-seven hours after transfection, the cells were detached, washed once with ice cold phosphate buffered saline (PBS) and detergent extracted with
180 μl lysis buffer [phosphate buffered saline (PBS) containing a protease inhibitor cocktail (0.16 mM Pefabloc, 105 IU Aprotinin), 1% Triton X100 and 0.1% Na Azide]. Since CD40 has a tendency for ligand independent signaling when expressed at high levels it was not necessary to activate the receptor with DC40 ligand or mimetic anti CD40 antibodies before lysis. This feature is shared by various members of the TNFR gene family (Boldin et al. 1995, Siegel et al. 2000 and Chan et al. 2000). […]
The recruitment of TRAF to CD40 can be quantitatively measured using the assay described in example 1. […] The CD40 bound TRAF concentration was measured as described in example 1. […] The necessary normalization for sample-to-sample variations in the CD40 expression was calculated with the following formula:
[formula] CD40 concentrations were determined with an ELISA employing a monoclonal antibody (solid phase) and a polyclonal anti CD40 antibody (for detection) both specific for the extracellular domain of the receptor. […]

CD40 mutants [1] = biological target: T2, CD40 mutants (Homo sapiens, UniProt P25942); assay: Recruitment assay in intact cells with CD40 mutants (deletions or point mutations in TRAF binding sites); conditions: CD40-222 (CD40 1-222) control, 293T cells
T2 construct: expressed in transfected cells; host or cells: 293T
T2 sequence (P25942 21-222, stated change not applied): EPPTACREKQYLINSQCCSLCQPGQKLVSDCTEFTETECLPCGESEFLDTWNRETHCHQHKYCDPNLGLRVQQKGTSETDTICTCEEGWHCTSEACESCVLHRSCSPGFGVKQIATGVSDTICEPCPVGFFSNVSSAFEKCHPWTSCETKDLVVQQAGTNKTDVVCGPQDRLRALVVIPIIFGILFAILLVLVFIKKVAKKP
Experimental: (§1) The lysates were cleared by centrifugation at 15000 G at 4° C. in a micro-centrifuge, 3 fold serially diluted (with lysis buffer containing 1% bovine serum albumin) and then every diluted sample incubated for 2 hours at room temperature (or overnight) in wells of ELISA microtiter plates coated with a mAb (Ro1) specific to the CD40 extra-cellular domain (Schwabe et al. 1997). For control purposes, instead of the wild type CD40 plasmid, a plasmid encoding a CD40 mutant lacking the entire signaling domain was used for transfection and transient expression (CD401-222, FIG. 1B). Following incubation exhaustive washes were carried out on the microtiter plates to remove any unbound protein [about 10 washing steps with PBS containing 0.05% Tween 20) PBS/Tween)]. To detect bound TRAF1, anti TRAF1 specific antibodies were loaded into the plates, incubated for about 3 hours at room temperature, […] by extensive washes to remove unbound antibody and detecting the bound antibody with an HRP conjugated secondary antibody. All antibodies (except when used as solid phase antibody) were diluted in PBS/Tween containing 1% BSA.
(§2) The recruitment of TRAF to CD40 can be quantitatively measured using the assay described in example 1. For that purpose, the assay conditions were adjusted in such a way that TRAF expression was in significant excess over the expression of CD40. This was the case when the TRAF expression plasmid was used at a two to three fold excess over the CD40 expression plasmid. The CD40 bound TRAF concentration was measured as described in example 1. A reference extract containing CD40/TRAF complexes served as a standard in each assay. This standard extract consisted of a large pool extract from cells that had been co-transfected with the plasmids encoding CD40/TRAF1, CD40/TRAF2, CD40/TRAF3, CD40/TRAF5 and CD40/TRAF6. The extracts were tested for the presence of CD40/TRAF complexes and the complex concentrations in each extract were arbitrarily defined as 1000 U/ml. The extracts were frozen in small aliquots and kept at −80° C. until further use. By comparing unknown samples to these extracts, it was possible to determine the relative CD40-TRAF complex concentrations in arbitrary units. The necessary normalization for sample-to-sample variations in the CD40 expression was calculated with the following formula: […]
(§3) The quantitative version of the TRAF recruitment assay as described in example 3 was used to compare CD40 and various CD40 mutants with respect to their TRAF recruitment behaviour. TRAF 1, 2, 3, 5 and 6 were examined. […] Additional deletion of the TRAF1/2/3/5 binding motif PXQXT254 at amino acid position 250 to 254 reduced the binding of all 5 TRAFs test to background levels (1-254EA in FIG. 3B). […]

CD40 mutants [2] = biological target: T3, CD40 mutants (Homo sapiens, UniProt P25942, E235A); assay: as above; conditions: E235A plus deletion of PXQXT254 motif
T3 construct: expressed in transfected cells; host or cells: 293T
T3 sequence (P25942 21-245 E235A): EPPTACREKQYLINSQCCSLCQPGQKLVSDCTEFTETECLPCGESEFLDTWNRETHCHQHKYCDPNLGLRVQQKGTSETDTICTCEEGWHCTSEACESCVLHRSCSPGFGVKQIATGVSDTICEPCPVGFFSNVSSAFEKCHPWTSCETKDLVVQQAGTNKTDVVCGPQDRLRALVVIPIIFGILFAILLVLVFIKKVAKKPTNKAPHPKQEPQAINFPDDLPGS
Experimental: as §1, §2, §3

T1 sequence (P25942 21-277): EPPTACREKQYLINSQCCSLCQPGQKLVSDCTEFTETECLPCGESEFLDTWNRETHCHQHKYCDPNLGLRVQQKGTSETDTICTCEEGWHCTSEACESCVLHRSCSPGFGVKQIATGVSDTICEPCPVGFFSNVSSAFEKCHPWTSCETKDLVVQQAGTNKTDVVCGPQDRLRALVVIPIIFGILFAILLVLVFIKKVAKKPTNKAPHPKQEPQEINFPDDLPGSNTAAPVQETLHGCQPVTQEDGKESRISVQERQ

B1: TRAF1: TNF receptor associated factor 1, adaptor protein overexpressed in 293T cells from pcDNA3 (protein, UniProt Q13077 1-416, looked up)
chain: MASSSGSSPRPAPDENEFPFGCPPTVCQDPKEPRALCCAGCLSENPRNGEDQICPKCRGEDLQSISPGSRLRTQEKAHPEVAEAGIGCPFAGVGCSFKGSPQSVQEHEVTSQTSHLNLLLGFMKQWKARLGCGLESGPMALEQNLSDLQLQAAVEVAGDLEVDCYRAPCSESQEELALQHFMKEKLLAELEGKLRVFENIVAVLNKEVEASHLALATSIHQSQLDRERILSLEQRVVELQQTLAQKDQALGKLEQSLRLMEEASFDGTFLWKITNVTRRCHESACGRTVSLFSPAFYTAKYGYKLCLRLYLNGDGTGKRTHLSLFIVIMRGEYDALLPWPFRNKVTFMLLDQNNREHAIDAFRPDLSSASFQRPQSETNVASGCPLFFPLSKLQSPKHAYVKDDTMFLKCIVETST
modifications: full-length
notes: TNF receptor associated factor 1, adaptor protein overexpressed in 293T cells from pcDNA3
For B1, which “dilution of the original extract up to which recruitment to the CD40 receptor can be detected” value (CD40; CD40 wt co-expressed with TRAF1 in 293T cells, 3 fold serial dilutions of lysate) is on record?
The value was no more than 243 fold.

What about the “interaction with CD40 when signalosome assembly occurred in an intact cell” value (CD40) of the same molecule?
Its value is “clearly improved sensitivity”.

What about the “recruitment to signalling-domain-deficient CD40 mutant” value (CD40 mutants [1]) of the same molecule?
Its value is “undetectable”.

B2: TRAF2: TNF receptor associated factor 2, human adaptor protein expressed from pcDNA3 (protein, UniProt Q12933 1-501, looked up)
chain: MAAASVTPPGSLELLQPGFSKTLLGTKLEAKYLCSACRNVLRRPFQAQCGHRYCSFCLASILSSGPQNCAACVHEGIYEEGISILESSSAFPDNAARREVESLPAVCPSDGCTWKGTLKEYESCHEGRCPLMLTECPACKGLVRLGEKERHLEHECPERSLSCRHCRAPCCGADVKAHHEVCPKFPLTCDGCGKKKIPREKFQDHVKTCGKCRVPCRFHAIGCLETVEGEKQQEHEVQWLREHLAMLLSSVLEAKPLLGDQSHAGSELLQRCESLEKKTATFENIVCVLNREVERVAMTAEACSRQHRLDQDKIEALSSKVQQLERSIGLKDLAMADLEQKVLEMEASTYDGVFIWKISDFARKRQEAVAGRIPAIFSPAFYTSRYGYKMCLRIYLNGDGTGRGTHLSLFFVVMKGPNDALLRWPFNQKVTLMLLDQNNREHVIDAFRPDVTSSSFQRPVNDMNIASGCPLFCPVSKMEAKNSYVRDDAIFIKAIVDLTGL
modifications: full-length
notes: TNF receptor associated factor 2, human adaptor protein expressed from pcDNA3
How did the “interaction with CD40 when signalosome assembly occurred in an intact cell” value (CD40) turn out when B2 was run?
Its value is “clearly improved sensitivity”.

What about the “binding to CD40 mutant 1-254EA” value (CD40 mutants [2]) of the same molecule?
The value was “did not bind”.
